Drawing on paper PMC7800377, this text covers stoichiometry N (binder:target ratio (6:6)) for one substance.

The target in this test is SUN domain of human SUN1 (amino acid residues 616–812), tags removed (human). The test is described as follows: SEC-MALS; co-expressed and co-purified samples at >1 mg/ml on Superdex 200 Increase 10/300 GL in 20 mM Tris pH 8.0, 150 mM KCl, 2 mM DTT.

Chain of KASH domain of human Nesprin-1 (KASH1, amino acid residues 8769–8797), tags removed (Q8NF91 8769-8797): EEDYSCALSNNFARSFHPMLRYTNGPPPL

Turning to “KASH domain of human Nesprin-1 (KASH1, amino acid residues 8769–8797), tags removed (from UniProt Q8NF91 8769-8797) (domain or fragment)”, the stoichiometry N (binder:target ratio (6:6)) stood at 1.
